Columns and labels:
GABA = assay: Ion channel panel (IonWorks Barracuda): GABA; type: cell-based; settings: 100% = no change, <100% = inhibition
Outline: (§1)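 Transfected HEK293 or CHO cells were exposed for at least 5 min to peptides at 200 nM and 20 μM final, tested in duplicate, in HEPES-buffered physiological saline. Activation was taken as peptide-plus-agonist current over control current ×100, and inhibition as 1 minus that ratio ×100. Each channel's control was its own reference compound.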

TRPA1 = target: T1, TRPA1 (Homo sapiens, UniProt O75762); assay: Ion channel panel (IonWorks Barracuda): TRPA1; type: cell-based; settings: 100% = no change, <100% = inhibition
T1 construct: host or cells: HEK293 or CHO
Outline: as §1

NR2B = target: T2, NR2B (Homo sapiens, UniProt Q13224); assay: Ion channel panel (IonWorks Barracuda): NR2B; type: cell-based; settings: 100% = no change, <100% = inhibition
T2 construct: host or cells: HEK293 or CHO
Outline: as §1

α3β4 = target: T3, α3β4 (Homo sapiens, UniProt P30926+P32297); assay: Ion channel panel (IonWorks Barracuda): α3β4; type: cell-based; settings: 100% = no change, <100% = inhibition
T3 construct: host or cells: HEK293 or CHO
Outline: as §1

α4β2 = target: T4, α4β2 (Homo sapiens, UniProt P17787+P43681); assay: Ion channel panel (IonWorks Barracuda): α4β2; type: cell-based; settings: 100% = no change, <100% = inhibition
T4 construct: host or cells: HEK293 or CHO
Outline: as §1

Nav1.7 = target: T5, Nav1.7 (Homo sapiens, UniProt Q15858); assay: cell-based; type: cell-based; settings: 100% = no change; for Activity of Nav1.7 with peptide, expressed as a percentage of the reference compound: peptide at 0.2 μM; for Activity of Nav1.7 with peptide (percentage of the reference compound): peptide at 20 μM
T5 construct: host or cells: HEK293 or CHO
T5 sequence (Q15858 whole entry): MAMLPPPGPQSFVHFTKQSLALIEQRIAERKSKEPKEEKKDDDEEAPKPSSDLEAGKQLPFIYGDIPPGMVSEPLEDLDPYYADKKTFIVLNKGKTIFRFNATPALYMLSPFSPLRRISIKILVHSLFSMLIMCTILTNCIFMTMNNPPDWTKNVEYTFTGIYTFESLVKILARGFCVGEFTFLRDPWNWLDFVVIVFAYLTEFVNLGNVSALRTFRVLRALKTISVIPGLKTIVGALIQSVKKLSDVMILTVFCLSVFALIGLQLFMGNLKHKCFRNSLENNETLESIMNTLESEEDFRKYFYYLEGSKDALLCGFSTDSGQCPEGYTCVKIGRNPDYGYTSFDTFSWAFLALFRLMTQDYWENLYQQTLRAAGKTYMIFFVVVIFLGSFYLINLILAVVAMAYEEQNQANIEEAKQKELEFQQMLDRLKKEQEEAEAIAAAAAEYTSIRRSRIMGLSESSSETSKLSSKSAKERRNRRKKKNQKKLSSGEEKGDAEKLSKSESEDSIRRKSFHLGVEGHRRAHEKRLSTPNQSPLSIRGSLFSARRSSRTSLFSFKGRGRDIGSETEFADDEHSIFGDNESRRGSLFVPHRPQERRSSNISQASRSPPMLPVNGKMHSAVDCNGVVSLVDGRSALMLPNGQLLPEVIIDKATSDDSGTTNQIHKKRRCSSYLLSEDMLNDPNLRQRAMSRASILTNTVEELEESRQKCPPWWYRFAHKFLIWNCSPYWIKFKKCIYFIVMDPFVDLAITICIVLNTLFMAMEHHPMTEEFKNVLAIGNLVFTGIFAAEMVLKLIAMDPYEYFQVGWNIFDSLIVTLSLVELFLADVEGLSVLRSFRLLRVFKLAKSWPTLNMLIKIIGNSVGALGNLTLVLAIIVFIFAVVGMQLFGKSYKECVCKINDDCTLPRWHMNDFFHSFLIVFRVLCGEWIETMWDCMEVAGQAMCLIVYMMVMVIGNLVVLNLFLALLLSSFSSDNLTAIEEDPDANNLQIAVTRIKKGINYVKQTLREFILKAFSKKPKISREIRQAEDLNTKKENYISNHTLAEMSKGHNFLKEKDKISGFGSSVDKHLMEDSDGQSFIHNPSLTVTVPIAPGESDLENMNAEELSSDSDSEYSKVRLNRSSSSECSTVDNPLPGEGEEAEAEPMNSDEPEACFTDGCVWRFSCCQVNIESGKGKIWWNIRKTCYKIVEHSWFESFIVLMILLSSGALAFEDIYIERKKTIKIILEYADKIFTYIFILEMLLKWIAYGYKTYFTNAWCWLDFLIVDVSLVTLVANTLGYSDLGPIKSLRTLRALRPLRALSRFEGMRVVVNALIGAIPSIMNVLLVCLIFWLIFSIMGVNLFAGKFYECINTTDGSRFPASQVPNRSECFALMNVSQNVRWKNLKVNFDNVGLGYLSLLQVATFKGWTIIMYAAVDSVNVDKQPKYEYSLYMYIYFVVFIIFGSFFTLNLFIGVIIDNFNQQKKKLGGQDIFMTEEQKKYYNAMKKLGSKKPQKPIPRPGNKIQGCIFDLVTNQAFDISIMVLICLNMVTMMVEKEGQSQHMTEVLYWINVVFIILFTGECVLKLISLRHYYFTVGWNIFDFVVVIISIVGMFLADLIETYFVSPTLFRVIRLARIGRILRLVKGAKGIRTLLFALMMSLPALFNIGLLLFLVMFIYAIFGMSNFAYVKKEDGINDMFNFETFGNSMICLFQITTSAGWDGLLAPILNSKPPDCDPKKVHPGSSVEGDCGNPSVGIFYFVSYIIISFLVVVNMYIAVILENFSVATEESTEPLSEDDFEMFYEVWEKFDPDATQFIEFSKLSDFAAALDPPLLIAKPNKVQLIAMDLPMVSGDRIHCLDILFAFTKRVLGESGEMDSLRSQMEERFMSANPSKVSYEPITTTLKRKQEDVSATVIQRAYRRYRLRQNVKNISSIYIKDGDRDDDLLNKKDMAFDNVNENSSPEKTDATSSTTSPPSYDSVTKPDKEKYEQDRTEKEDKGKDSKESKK

5HT3a = target: T6, 5HT3a (Homo sapiens, UniProt P46098); assay: Ion channel panel (IonWorks Barracuda): 5HT3a; type: cell-based
T6 construct: host or cells: HEK293 or CHO
T6 sequence (P46098 whole entry, looked up): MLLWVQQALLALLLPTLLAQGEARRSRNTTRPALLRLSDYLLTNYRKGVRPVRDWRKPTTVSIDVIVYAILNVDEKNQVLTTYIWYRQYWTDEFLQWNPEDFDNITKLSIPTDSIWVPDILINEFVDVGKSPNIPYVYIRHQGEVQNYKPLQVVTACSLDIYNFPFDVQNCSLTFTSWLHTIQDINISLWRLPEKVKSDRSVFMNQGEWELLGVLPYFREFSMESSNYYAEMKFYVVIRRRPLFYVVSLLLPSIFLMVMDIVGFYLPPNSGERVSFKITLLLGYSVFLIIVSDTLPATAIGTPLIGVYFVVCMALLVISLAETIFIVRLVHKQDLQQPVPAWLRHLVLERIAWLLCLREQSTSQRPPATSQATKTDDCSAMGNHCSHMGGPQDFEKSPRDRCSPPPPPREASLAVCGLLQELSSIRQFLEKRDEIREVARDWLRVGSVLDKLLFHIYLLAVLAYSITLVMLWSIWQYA
Outline: as §1

TRPV1 = target: T7, TRPV1 (Homo sapiens, UniProt Q8NER1); assay: Ion channel panel (IonWorks Barracuda): TRPV1; type: cell-based; settings: 100% = no change, <100% = inhibition
T7 construct: host or cells: HEK293 or CHO
Outline: as §1

Nav1.5 = Nav1.5 (Homo sapiens, UniProt Q14524); assay: in vitro; settings: 100% = no change; for Activity of Nav1.5 with peptide, expressed as a percentage of the reference compound: peptide at 0.2 μM; for Activity of Nav1.5 with peptide (percentage of the reference compound): peptide at 20 μM
Nav1.5, sequence (Q14524 whole entry): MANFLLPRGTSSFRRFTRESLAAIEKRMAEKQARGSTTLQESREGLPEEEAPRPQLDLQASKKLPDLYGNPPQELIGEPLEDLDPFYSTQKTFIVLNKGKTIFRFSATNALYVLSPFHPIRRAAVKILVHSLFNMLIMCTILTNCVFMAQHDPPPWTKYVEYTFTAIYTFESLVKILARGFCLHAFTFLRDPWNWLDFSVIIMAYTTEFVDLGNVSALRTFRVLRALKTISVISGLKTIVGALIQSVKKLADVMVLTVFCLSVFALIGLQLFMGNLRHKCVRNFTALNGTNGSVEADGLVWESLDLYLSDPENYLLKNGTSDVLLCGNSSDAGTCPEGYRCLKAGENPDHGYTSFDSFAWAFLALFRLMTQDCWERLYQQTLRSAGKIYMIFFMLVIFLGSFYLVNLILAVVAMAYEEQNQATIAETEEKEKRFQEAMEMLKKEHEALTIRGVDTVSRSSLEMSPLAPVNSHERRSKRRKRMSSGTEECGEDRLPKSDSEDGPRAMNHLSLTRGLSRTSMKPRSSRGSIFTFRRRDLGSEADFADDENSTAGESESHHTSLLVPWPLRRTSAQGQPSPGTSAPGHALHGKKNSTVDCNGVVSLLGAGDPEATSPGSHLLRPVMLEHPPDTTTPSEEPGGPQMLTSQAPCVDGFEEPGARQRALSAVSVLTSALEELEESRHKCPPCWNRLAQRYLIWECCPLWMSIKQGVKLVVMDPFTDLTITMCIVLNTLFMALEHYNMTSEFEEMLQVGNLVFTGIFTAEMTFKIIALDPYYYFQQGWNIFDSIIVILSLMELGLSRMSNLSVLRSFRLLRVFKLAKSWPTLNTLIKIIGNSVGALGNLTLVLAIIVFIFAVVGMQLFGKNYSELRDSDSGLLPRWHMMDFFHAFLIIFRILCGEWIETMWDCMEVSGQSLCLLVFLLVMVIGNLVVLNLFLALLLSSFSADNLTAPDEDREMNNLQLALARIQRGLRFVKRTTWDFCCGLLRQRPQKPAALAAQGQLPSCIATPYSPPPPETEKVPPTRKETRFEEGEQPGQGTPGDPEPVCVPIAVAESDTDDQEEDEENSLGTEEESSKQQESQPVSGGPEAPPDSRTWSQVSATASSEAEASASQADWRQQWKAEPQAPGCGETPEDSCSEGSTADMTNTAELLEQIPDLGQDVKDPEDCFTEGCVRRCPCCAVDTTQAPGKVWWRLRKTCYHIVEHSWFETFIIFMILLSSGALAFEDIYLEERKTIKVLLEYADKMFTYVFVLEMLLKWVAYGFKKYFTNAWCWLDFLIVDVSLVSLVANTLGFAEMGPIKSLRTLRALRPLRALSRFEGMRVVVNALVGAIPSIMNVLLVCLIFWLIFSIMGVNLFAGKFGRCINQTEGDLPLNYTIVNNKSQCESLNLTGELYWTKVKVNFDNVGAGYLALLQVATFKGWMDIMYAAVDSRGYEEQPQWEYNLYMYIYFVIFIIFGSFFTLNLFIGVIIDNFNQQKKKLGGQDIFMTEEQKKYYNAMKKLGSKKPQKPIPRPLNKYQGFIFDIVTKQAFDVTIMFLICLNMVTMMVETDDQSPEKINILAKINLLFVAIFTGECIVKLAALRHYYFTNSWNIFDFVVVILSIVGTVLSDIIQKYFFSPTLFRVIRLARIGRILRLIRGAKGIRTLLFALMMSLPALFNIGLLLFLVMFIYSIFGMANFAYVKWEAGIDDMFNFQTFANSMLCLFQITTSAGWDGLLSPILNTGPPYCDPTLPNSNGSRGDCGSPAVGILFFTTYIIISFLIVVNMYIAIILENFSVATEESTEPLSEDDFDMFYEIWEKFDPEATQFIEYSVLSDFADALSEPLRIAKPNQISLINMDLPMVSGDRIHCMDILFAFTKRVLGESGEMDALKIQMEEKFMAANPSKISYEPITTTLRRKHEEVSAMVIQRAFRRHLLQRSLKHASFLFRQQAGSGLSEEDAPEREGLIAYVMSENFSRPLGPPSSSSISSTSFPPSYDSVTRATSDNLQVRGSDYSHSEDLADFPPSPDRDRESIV
Outline: as §1

hERG = hERG (Homo sapiens, UniProt Q12809); assay: in vitro; settings: 100% = no change, <100% = inhibition
Outline: as §1

Cav2.1 = target: T8, Cav2.1 (Homo sapiens, UniProt O00555); assay: cell-based; settings: 100% = no change, <100% = inhibition
T8 construct: host or cells: HEK293 or CHO
Outline: as §1

Kv2.1 = target: T9, Kv2.1 (Homo sapiens, UniProt Q14721); assay: cell-based; settings: 100% = no change, <100% = inhibition
T9 construct: host or cells: HEK293 or CHO
Outline: as §1

Cav2.2 = target: T10, Cav2.2 (Homo sapiens, UniProt Q00975); assay: cell-based; settings: 100% = no change, <100% = inhibition
T10 construct: host or cells: HEK293 or CHO
Outline: as §1

Kv1.1 = target: T11, Kv1.1 (Homo sapiens, UniProt Q09470); assay: cell-based; type: cell-based; settings: 100% = no change, <100% = inhibition
T11 construct: host or cells: HEK293 or CHO
T11 sequence (Q09470 whole entry): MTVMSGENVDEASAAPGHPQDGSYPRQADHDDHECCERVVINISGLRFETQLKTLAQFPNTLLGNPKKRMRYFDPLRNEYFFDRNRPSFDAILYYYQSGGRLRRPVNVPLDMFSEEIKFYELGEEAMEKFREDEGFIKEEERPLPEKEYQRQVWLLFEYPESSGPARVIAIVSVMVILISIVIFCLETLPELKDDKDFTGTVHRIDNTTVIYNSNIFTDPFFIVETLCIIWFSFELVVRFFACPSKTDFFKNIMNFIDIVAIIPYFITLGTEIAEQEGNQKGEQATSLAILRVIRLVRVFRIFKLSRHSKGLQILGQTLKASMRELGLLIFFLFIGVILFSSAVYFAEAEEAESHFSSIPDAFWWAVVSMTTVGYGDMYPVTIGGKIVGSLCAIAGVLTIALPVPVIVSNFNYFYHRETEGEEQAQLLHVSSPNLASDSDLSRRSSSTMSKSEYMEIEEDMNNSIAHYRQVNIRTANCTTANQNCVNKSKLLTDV
Outline: as §1

Kv1.3 = target: T12, Kv1.3 (Homo sapiens, UniProt P22001); assay: cell-based; type: cell-based; settings: 100% = no change, <100% = inhibition
T12 construct: host or cells: HEK293 or CHO
T12 sequence (P22001 whole entry): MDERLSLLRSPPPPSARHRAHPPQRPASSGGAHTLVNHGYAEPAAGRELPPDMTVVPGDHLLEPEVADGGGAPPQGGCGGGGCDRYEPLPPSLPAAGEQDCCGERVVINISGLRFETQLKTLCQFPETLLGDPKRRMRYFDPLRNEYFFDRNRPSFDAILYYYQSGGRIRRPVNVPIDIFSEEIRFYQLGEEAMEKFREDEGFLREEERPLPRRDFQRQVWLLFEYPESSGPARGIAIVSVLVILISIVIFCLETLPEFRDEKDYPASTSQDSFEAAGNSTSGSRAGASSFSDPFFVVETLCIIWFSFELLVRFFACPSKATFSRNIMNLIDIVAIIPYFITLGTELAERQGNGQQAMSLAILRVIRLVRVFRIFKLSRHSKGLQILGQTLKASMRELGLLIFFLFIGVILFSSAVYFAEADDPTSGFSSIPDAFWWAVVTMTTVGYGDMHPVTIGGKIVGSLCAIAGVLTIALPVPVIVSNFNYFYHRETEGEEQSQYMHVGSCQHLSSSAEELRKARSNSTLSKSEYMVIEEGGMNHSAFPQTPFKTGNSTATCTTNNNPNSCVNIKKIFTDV
Outline: as §1

Kv1.2 = target: T13, Kv1.2 (Homo sapiens, UniProt P16389); assay: cell-based; type: cell-based; settings: 100% = no change, <100% = inhibition
T13 construct: host or cells: HEK293 or CHO
Outline: as §1

NR2A = target: T14, NR2A (Homo sapiens, UniProt Q12879); assay: Ion channel panel (IonWorks Barracuda): NR2A; type: cell-based; settings: 100% = no change, <100% = inhibition
T14 construct: host or cells: HEK293 or CHO
Outline: as §1

Kir2.1 = target: T15, Kir2.1 (Homo sapiens, UniProt P63252); assay: Ion channel panel (IonWorks Barracuda): Kir2.1; type: cell-based; settings: 100% = no change, <100% = inhibition
T15 construct: host or cells: HEK293 or CHO
Outline: as §1

[1] = first of two Nav1.7 columns (probably TP1)
[2] = second of two Nav1.7 columns (probably TP2)
[3] = first of two Nav1.5 columns (probably TP1)
[4] = second of two Nav1.5 columns (probably TP2)

30 (GSQVSTNKKCSNTSQCYKTCEKVVGVAAGKCMNGKCICYP) [compound 30]
Activity of GABA with peptide, expressed as a percentage of the reference compound (GABA; peptide at 0.2 μM): 102%
Activity of GABA with peptide (percentage of the reference compound) (GABA; peptide at 20 μM): 114%
Activity of TRPA1 with peptide, expressed as a percentage of the reference compound (TRPA1; peptide at 0.2 μM): 118%
Activity of TRPA1 with peptide (percentage of the reference compound) (TRPA1; peptide at 20 μM): 111%
Activity of NR2B with peptide, expressed as a percentage of the reference compound (NR2B; peptide at 0.2 μM): 92%
Activity of NR2B with peptide (percentage of the reference compound) (NR2B; peptide at 20 μM): 88%
Activity of a3b4 with peptide, expressed as a percentage of the reference compound (α3β4; peptide at 0.2 μM): 91%
Activity of a3b4 with peptide (percentage of the reference compound) (α3β4; peptide at 20 μM): 101%
Activity of a4b2 with peptide, expressed as a percentage of the reference compound (α4β2; peptide at 0.2 μM): 89%
Activity of a4b2 with peptide (percentage of the reference compound) (α4β2; peptide at 20 μM): 92%
Activity of Nav1.7 with peptide, expressed as a percentage of the reference compound (Nav1.7; [1]): 103%
Activity of Nav1.7 with peptide, expressed as a percentage of the reference compound (Nav1.7; [2]): 125%
Activity of Nav1.7 with peptide (percentage of the reference compound) (Nav1.7; [1]): 84%
Activity of Nav1.7 with peptide (percentage of the reference compound) (Nav1.7; [2]): 54%
Activity of 5HT3a with peptide (percentage of the reference compound) (5HT3a): 91%
Activity of 5HT3a with peptide, expressed as a percentage of the reference compound (5HT3a): 71%
Activity of TRPV1 with peptide, expressed as a percentage of the reference compound (TRPV1; peptide at 0.2 μM): 107%
Activity of TRPV1 with peptide (percentage of the reference compound) (TRPV1; peptide at 20 μM): 84%
Activity of Nav1.5 with peptide, expressed as a percentage of the reference compound (Nav1.5; [3]): 105%
Activity of Nav1.5 with peptide, expressed as a percentage of the reference compound (Nav1.5; [4]): 102%
Activity of Nav1.5 with peptide (percentage of the reference compound) (Nav1.5; [3]): 94%
Activity of Nav1.5 with peptide (percentage of the reference compound) (Nav1.5; [4]): 96%
Activity of hERG with peptide, expressed as a percentage of the reference compound (hERG; peptide at 0.2 μM): 95%
Activity of hERG with peptide (percentage of the reference compound) (hERG; peptide at 20 μM): 95%
Activity of Cav2.1 with peptide, expressed as a percentage of the reference compound (Cav2.1; peptide at 0.2 μM): 111%
Activity of Cav2.1 with peptide (percentage of the reference compound) (Cav2.1; peptide at 20 μM): 103%
Activity of Kv2.1 with peptide, expressed as a percentage of the reference compound (Kv2.1; peptide at 0.2 μM): 107%
Activity of Kv2.1 with peptide (percentage of the reference compound) (Kv2.1; peptide at 20 μM): 106%
Activity of Cav2.2 with peptide, expressed as a percentage of the reference compound (Cav2.2; peptide at 0.2 μM): 96%
Activity of Cav2.2 with peptide (percentage of the reference compound) (Cav2.2; peptide at 20 μM): 101%
Activity of Kv1.1 with peptide, expressed as a percentage of the reference compound (Kv1.1; peptide at 0.2 μM): 98%
Activity of Kv1.1 with peptide (percentage of the reference compound) (Kv1.1; peptide at 20 μM): 102%
Activity of Kv1.3 with peptide, expressed as a percentage of the reference compound (Kv1.3; peptide at 0.2 μM): 89%
Activity of Kv1.3 with peptide (percentage of the reference compound) (Kv1.3; peptide at 20 μM): 71%
Activity of Kv1.2 with peptide, expressed as a percentage of the reference compound (Kv1.2; peptide at 0.2 μM): 110%
Activity of Kv1.2 with peptide (percentage of the reference compound) (Kv1.2; peptide at 20 μM): 92%
Activity of NR2A with peptide, expressed as a percentage of the reference compound (NR2A; peptide at 0.2 μM): 111%
Activity of NR2A with peptide (percentage of the reference compound) (NR2A; peptide at 20 μM): 98%
Activity of Kir2.1 with peptide, expressed as a percentage of the reference compound (Kir2.1; peptide at 0.2 μM): 102%
Activity of Kir2.1 with peptide (percentage of the reference compound) (Kir2.1; peptide at 20 μM): 93%

From US20200262877A1, “ION CHANNEL-BINDING PEPTIDES AND METHODS OF USE THEREOF” (priority 2017, published 2020)
